Key:
[1] = biological target: prolactin receptor (PrlR), extracellular domain (UniProt P16471); assay: SPR; Biacore 3000; PrlR immobilized on CM5 chip (approx. 300 RU); dilution series of analyte injected; 25°C, 40 μl/min; PBS with 0.05% Tween-20; 1:1 Langmuir model
[2] = biological target: mouse serum albumin (mouse) (UniProt P07724); assay: SPR; Biacore 3000; mouse serum albumin immobilized on CM5 chip (approx. 800 RU); dilution series of ABD-PrlRA injected; 25°C, 40 μl/min; 1:1 Langmuir model
[3] = biological target: prolactin receptor (PrlR), extracellular domain (UniProt P16471); assay: SPR; Biacore 3000; extracellular domain of PrlR immobilized; ABD-PrlRA dilution series with HSA added to 400 nM, incubated 4 h at 4°C; PBS with 0.05% Tween-20 and HSA as running buffer; 25°C, 40 μl/min; 1:1 Langmuir model (called an approximation)
[4] = biological target: prolactin receptor (PrlR), extracellular domain (UniProt P16471); assay: as above; remark: listed apart in the source
[5] = biological target: T1, prolactin receptor (PrlR), extracellular domain (UniProt P16471 25-234); assay: SPR; Biacore 3000; PrlR immobilized on CM5 chip (approx. 300 RU); dilution series of analyte injected; 25°C, 40 μl/min; PBS with 0.05% Tween-20; 1:1 Langmuir model; conditions: both partners purified
T1 construct: prolactin receptor, extracellular domain, from Sino Biological; No catalogue number printed; source: bought: Sino Biological
T1 sequence (looked up): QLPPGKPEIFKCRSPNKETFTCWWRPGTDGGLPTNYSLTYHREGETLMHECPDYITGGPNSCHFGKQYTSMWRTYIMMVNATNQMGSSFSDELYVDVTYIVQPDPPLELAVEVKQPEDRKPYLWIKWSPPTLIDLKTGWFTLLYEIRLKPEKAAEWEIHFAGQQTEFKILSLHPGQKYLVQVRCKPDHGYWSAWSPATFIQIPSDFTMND

[6] = biological target: T1, prolactin receptor (PrlR), …; assay: as above; conditions: both partners purified; remark: listed apart in the source

Chain of mouse serum albumin (mouse) (P07724 25-608): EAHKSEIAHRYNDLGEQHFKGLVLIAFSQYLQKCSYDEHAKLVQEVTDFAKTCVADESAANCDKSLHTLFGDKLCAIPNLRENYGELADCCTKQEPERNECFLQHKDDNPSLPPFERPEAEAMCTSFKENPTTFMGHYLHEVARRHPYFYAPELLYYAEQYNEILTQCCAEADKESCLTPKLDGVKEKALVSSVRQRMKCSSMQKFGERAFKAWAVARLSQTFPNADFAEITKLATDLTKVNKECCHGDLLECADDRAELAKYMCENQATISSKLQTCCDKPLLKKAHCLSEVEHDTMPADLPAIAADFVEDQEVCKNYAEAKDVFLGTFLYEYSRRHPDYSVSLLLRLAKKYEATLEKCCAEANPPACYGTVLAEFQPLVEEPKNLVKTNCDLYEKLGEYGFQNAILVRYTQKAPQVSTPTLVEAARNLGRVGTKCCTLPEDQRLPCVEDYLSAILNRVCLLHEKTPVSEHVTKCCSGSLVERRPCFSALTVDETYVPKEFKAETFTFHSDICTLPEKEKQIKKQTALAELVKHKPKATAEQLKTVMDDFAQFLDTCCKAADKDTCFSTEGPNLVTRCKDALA

Molecule “ABD-PrlRA (fusion of an N-terminal albumin binding domain ABD035 and the prolactin receptor antagonist PrlRA) (from UniProt P01236 29-227)” has a Kd [1] of 2.3 nM, a koff [1] of 0.00074 s⁻¹ and a kon [1] of 330000 M⁻¹ s⁻¹. The Kd [2] was 0.38 nM, the koff [2] was 0.0012 s⁻¹ and the kon [2] was 3.1e+06 M⁻¹ s⁻¹.

“complex of HSA and ABD-PrlRA (from UniProt P02768 25-609; P01236 29-227)” was tested, and the Kd [3] was 21 nM, the koff [3] was 0.00078 s⁻¹ and the kon [3] was 39000 M⁻¹ s⁻¹. The Kd [4] was 23 nM.

B1: prolactin receptor antagonist PrlRA (ligand, human)
chain: MGSSRSQVTLRDLFDRAVVLSHYIHNLASEMFSEFDKRYTHGRGFITKAINSCHTSSLATPEDKEQALQMNQKDFLSLIVSILRSWNEPLYHLVTEVRGMQEAPEAILSKAVEIEEQTKRLLERMELIVSQVHPETKENEIYPVWSGLPSLQMADEESRLSAYYNLLHCLRRDSHKIDNYLKLLRCRIIHNNNC
Molecule B1 has a Kd [5] of 3.4 ± 0.5 nM, a koff [5] of 0.00088 s⁻¹ and a kon [5] of 260000 M⁻¹ s⁻¹.

B2: Prolactin (Prl*), commercially obtained (ligand, UniProt P01236 29-227, looked up)
chain: LPICPGGAARCQVTLRDLFDRAVVLSHYIHNLSSEMFSEFDKRYTHGRGFITKAINSCHTSSLATPEDKEQAQQMNQKDFLSLIVSILRSWNEPLYHLVTEVRGMQEAPEAILSKAVEIEEQTKRLLEGMELIVSQVHPETKENEIYPVWSGLPSLQMADEESRLSAYYNLLHCLRRDSHKIDNYLKLLKCRIIHNNNC
notes: prolactin from Sino Biological; No catalogue number printed; source: bought: Sino Biological
B2 gave a Kd [6] of 23 ± 4 nM.

B3: prolactin (Prl), produced in house (ligand, human)
chain: MGSSLPICPGGAARCQVTLRDLFDRAVVLSHYIHNLSSEMFSEFDKRYTHGRGFITKAINSCHTSSLATPEDKEQAQQMNQKDFLSLIVSILRSWNEPLYHLVTEVRGMQEAPEAILSKAVEIEEQTKRLLEGMELIVSQVHPETKENEIYPVWSGLPSLQMADEESRLSAYYNLLHCLRRDSHKIDNYLKLLKCRIIHNNNC
notes: prolactin, human; the Prl gene itself is not separately called human; also called in house produced Prl
Work on B3 yielded a Kd [5] of 8.4 ± 0.2 nM, a koff [5] of 0.0012 s⁻¹ and a kon [5] of 140000 M⁻¹ s⁻¹.

Source: paper PMC6504076, “An in vivo half-life extended prolactin receptor antagonist can prevent STAT5 phosphorylation” (PLoS ONE, 2019)
